In assay [1] the target is T1, human TIGIT-His protein (human, UniProt Q495A1 22-141).
T1 construct: Recombinant protein; also called human TIGIT-his tag; hTIGIT-His
T1 sequence (looked up): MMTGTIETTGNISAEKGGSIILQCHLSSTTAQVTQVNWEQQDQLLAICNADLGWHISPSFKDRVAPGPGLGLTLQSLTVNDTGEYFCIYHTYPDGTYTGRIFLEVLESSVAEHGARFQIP
The experiment in a line: SPR (Biacore) affinity ranking, human TIGIT-His.

The target of assay [2] is T1, human TIGIT-His protein. In words: ELISA, plate coated with human TIGIT-His, anti-human IgG-HRP, OD 450nm; unit taken from the axis Log[Conc.]/ng/ml. The method, then:
To evaluate the antigen binding activity, the humanized antibodies were subjected to ELISA test. Briefly, microtiter plates were coated with human TIGIT-his protein at 0.5 µg/ml in PBS, 100 µl/well at 4° C. overnight, then blocked with 150 µl/well of 1% BSA. Three-fold dilutions of humanized antibodies starting from 3 µg/ml were added to each well and incubated for 1 hour at 37° C. The plates were washed with PBS/Tween and then incubated with Goat-anti-human IgG antibody conjugated with Horse Radish Peroxidase (HRP) for 30 mins at 37° C. After washing, the plates were developed with TMB substrate and analyzed by spectrophotometer at OD 450 nm.

B1: 76D12B10-Hu08 (antibody, V domains shown)
VH: EVQLQESGPGLVKPSETLSLTCAVSGYSISSGYDWHWIRQPPGKGLEWMGFIRDSGSTVYNPSLKGRITISHDTSKNQFSLKLSSVTAADTAVYYCARGLFWYFDVWGQGTTVTVSS
VL: DIQMTQSPSSLSASVGDRVTITCRTSENIFSYLAWYQQKPGKVPKLLIHNTKTLAEGVPSRFSGSGSGTDFTLTISSLQPEDVATYYCQHHYGNPLTFGQGTKLEIK
notes: Humanized, VH.V3 + VK.V1
In the case of B1, in the assay with human TIGIT-His protein [1], the Kd amounted to 0.0192 nM, the koff amounted to 9.73e-05 s⁻¹ and the on-rate constant (kon) was determined as 5.06e+06 M⁻¹ s⁻¹. The same molecule gave an EC50 with human TIGIT-His protein [2] of 9.54 ng/mL.

B2: 76D12B10-Hu03 (antibody, V domains shown)
VH: EVQLQESGPGLVKPSETLSLTCAVSGYSISSGYDWHWIRQPPGKGLEWMGFIRDSGSTVYNPSLKGRITISHDTSKNQFSLKLSSVTAADTAVYYCARGLFWYFDVWGQGTTVTVSS
VL: DIQMTQSPSSLSASVGDRVTITCRTSENIFSYLAWYQQKPGKVPKLLIYNTKTLAEGVPSRFSGSGSGTDFTLTISSLQPEDVATYYCQHHYGNPLTFGQGTKLEIK
notes: Humanized, VH.V3 + VK.V0
In the case of B2, in the assay with human TIGIT-His protein [1], the affinity, expressed as Kd, was 0.0143 nM; the koff was found to be 0.00015 s⁻¹; the association rate constant (kon) is 1.05e+07 M⁻¹ s⁻¹. In the assay with human TIGIT-His protein [2], this molecule showed an EC50 of 10.6 ng/mL.

B3: 76D12B10-Hu09 (antibody, V domains shown)
VH: EVQLQESGPGLVKPSETLSLTCAASGYSITSGYDWHWIRQPPGKGLEWMGFIRDSGSTVYNPSLKGRITISHDTSKNQFSLKLSSVTAADTAVYYCARGLFWYFDVWGQGTTVTVSS
VL: DIQMTQSPSSLSASVGDRVTITCRTSENIFSYLAWYQQKPGKVPKLLIHNTKTLAEGVPSRFSGSGSGTDFTLTISSLQPEDVATYYCQHHYGNPLTFGQGTKLEIK
notes: Humanized, VH.V4 + VK.V1
In the assay with human TIGIT-His protein [1], B3 returned a dissociation constant Kd of 0.0139 nM, a koff of 0.000125 s⁻¹ and a kon of 9.01e+06 M⁻¹ s⁻¹. The molecule also had a concentration for a half-maximal effect (EC50) with human TIGIT-His protein [2] of 4.95 ng/mL.

B4: 76D12B10-Hu04 (antibody, V domains shown)
VH: EVQLQESGPGLVKPSETLSLTCAASGYSITSGYDWHWIRQPPGKGLEWMGFIRDSGSTVYNPSLKGRITISHDTSKNQFSLKLSSVTAADTAVYYCARGLFWYFDVWGQGTTVTVSS
VL: DIQMTQSPSSLSASVGDRVTITCRTSENIFSYLAWYQQKPGKVPKLLIYNTKTLAEGVPSRFSGSGSGTDFTLTISSLQPEDVATYYCQHHYGNPLTFGQGTKLEIK
notes: Humanized, VH.V4 + VK.V0
In the assay with human TIGIT-His protein [1], B4 showed a dissociation constant Kd of 0.0191 nM, an off-rate constant (koff) of 9.85e-05 s⁻¹ and a kon of 5.15e+06 M⁻¹ s⁻¹. Further, the EC50 in the assay with human TIGIT-His protein [2] amounted to 9.96 ng/mL.

B5: 76D12B10-Hu07 (antibody, V domains shown)
VH: EVQLQESGPGLVKPSETLSLTCAVSGYSISSGYDWHWIRQPPGKGLEWIGFIRDSGSTVYNPSLKGRITISHDTSKNQFSLKLSSVTAADTAVYYCARGLFWYFDVWGQGTTVTVSS
VL: DIQMTQSPSSLSASVGDRVTITCRTSENIFSYLAWYQQKPGKVPKLLIHNTKTLAEGVPSRFSGSGSGTDFTLTISSLQPEDVATYYCQHHYGNPLTFGQGTKLEIK
notes: Humanized, VH.V2 + VK.V1
For B5, in the assay with human TIGIT-His protein [1], the Kd amounted to 0.0186 nM, the koff turned out to be 8.93e-05 s⁻¹ and the kon was 4.8e+06 M⁻¹ s⁻¹. In the assay with human TIGIT-His protein [2], this molecule had an EC50 of 10.7 ng/mL.

B6: 76D12B10-Hu05 (antibody, V domains shown)
VH: EVQLQESGPGLVKPSETLSLTCAASGYSITSGYDWHWIRQPPGKKLEWMGFIRDSGSTVYNPSLKGRITISHDTSKNQFSLKLSSVTAADTAVYFCARGLFWYFDVWGQGTTVTVSS
VL: DIQMTQSPSSLSASVGDRVTITCRTSENIFSYLAWYQQKPGKVPKLLIYNTKTLAEGVPSRFSGSGSGTDFTLTISSLQPEDVATYYCQHHYGNPLTFGQGTKLEIK
notes: Humanized, VH.V5 + VK.V0
In the assay with human TIGIT-His protein [1], B6 showed a Kd of 0.0165 nM, a koff of 9.75e-05 s⁻¹ and an on-rate constant (kon) of 5.92e+06 M⁻¹ s⁻¹. The midpoint of the response with human TIGIT-His protein [2], the EC50, lay at 10.1 ng/mL.

B7: 76D12B10-Hu01 (antibody, V domains shown)
VH: EVQLQESGPGLVKPSETLSLTCAVSGYSISSGYDWHWIRQPPGKGLEWIGFIRDSGSTVYNPSLKGRVTISHDTSKNQFSLKLSSVTAADTAVYYCARGLFWYFDVWGQGTTVTVSS
VL: DIQMTQSPSSLSASVGDRVTITCRTSENIFSYLAWYQQKPGKVPKLLIYNTKTLAEGVPSRFSGSGSGTDFTLTISSLQPEDVATYYCQHHYGNPLTFGQGTKLEIK
notes: Humanized, VH.V1 + VK.V0
In the assay with human TIGIT-His protein [1], B7 yielded a dissociation constant (Kd) of 0.0701 nM, an off-rate constant (koff) of 0.000104 s⁻¹ and a kon of 1.48e+06 M⁻¹ s⁻¹. This molecule also displayed an EC50 in the assay with human TIGIT-His protein [2] of 9.89 ng/mL.

The values above are taken from patent US11028172 (LEPU BIOPHARMA, dated 2021).
